# Laboratory results published in article PMC6957217.
# Molecular target: Three of the mutant needles, I933A, N937A, and G938A
# Assay: ELISA; gp37 trimers coated (100 ng/well) overnight at 4°C, casein block, OmpC added (various molar ratios; gp37:OmpC 1:1 for the mutants), 37°C 2 hr, PBS-T washes, bound OmpC detected with mouse anti-OmpC sera and HRP anti-mouse IgG
binder,measurement,value
recombinant OmpC trimer (outer membrane protein C) (natural protein) AEVYNKDGNKLDLYGKVDGLHYFSDNKDVDGDQTYMRLGFKGETQVTDQLTGYGQWEYQIQGNSAENENNSWTRVAFAGLKFQDVGSFDYGRNYGVVYDVTSWTDVLPEFGGDTYGSDNFMQQRGNGFATYRNTDFFGLVDGLNFAVQYQGKNGNPSGEGFTSGVTNNGRDALRQNGDGVGGSITYDYEGFGIGGAISSSKRTDAQNTAAYIGNGDRAETYTGGLKYDANNIYLAAQYTQTYNATRVGSLGWANKAQNFEAVAQYQFDFGLRPSLAYLQSKGKNLGRGYDDEDILKYVDVGATYYFNKNMSTYVDYKINLLDDNQFTRDAGINTDNIVALGLVYQF,fold binding against the WT needle,2 to 3 fold
